The text below walks through data of article PMC5612953, “Stable MOB1 interaction with Hippo/MST is not essential for development and tissue growth control” (Nature Communications, 2017).

Changes are numbered by the printed parent chain. Names may count otherwise.

Assay [1] has as its target T1, phospho-MOB1(K104E/K105E), full length, recombinant (human, UniProt Q9H8S9 1-216, K104E | K105E, phosphorylated in vitro by MST2 (residues 2-308); the paper names Thr12 and Thr35 as the MST1/2 phosphorylation sites of MOB1).
T1 construct: human MOB1A, full length; source: E. coli, purified (Ni-NTA), then phosphorylated in vitro by MST2 (2-308)
T1 sequence (looked up): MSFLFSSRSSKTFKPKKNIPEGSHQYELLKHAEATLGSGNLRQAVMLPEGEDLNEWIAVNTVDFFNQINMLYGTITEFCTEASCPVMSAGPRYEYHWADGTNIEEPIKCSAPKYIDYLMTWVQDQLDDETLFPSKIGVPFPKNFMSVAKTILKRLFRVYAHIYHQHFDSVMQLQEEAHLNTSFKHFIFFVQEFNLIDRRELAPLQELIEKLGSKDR
As to the kind of experiment: SEC; purified full-length MOB1 proteins incubated with NDR2 (25-88), LATS1 (618-697) or MST2 (2-392) at 4 °C for 20 min in assembly buffer (20 mM Tris pH 8.0, 200 mM NaCl, 5 mM DTT); HiLoad 16/60 Superdex 200; fractions by SDS-PAGE and Coomassie; for LATS1 MOB1A was first phosphorylated by MST2 (2-308). Conditions: both partners purified.

For assay [2], the target named is T2, human MST2 (residues 2-392) (human, UniProt Q13188 2-392).
T2 construct: human MST2, residues 2-392; also called MST2 (2-392); source: E. coli BL21(DE3), purified (Ni-NTA)
T2 sequence (looked up): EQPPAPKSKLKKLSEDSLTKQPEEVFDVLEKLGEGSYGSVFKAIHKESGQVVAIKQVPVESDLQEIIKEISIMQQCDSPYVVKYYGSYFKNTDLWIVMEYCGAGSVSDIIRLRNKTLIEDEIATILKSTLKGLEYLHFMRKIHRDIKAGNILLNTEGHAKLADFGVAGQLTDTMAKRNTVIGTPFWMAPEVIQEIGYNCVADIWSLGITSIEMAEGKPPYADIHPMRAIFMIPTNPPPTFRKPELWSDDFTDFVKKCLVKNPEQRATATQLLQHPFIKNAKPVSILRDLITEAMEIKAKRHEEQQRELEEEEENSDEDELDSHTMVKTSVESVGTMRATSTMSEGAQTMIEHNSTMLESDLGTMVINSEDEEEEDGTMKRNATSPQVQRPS
The assay is described as above. As to conditions: both partners purified.

B1: human LATS1 (residues 618-697) (domain or fragment, UniProt O95835 618-697, looked up)
chain: RKNKKDEERRESRIQSYSPQAFKFFMEQHVENVLKSHQQRLHRKKQLENEMMRVGLSQDAQDQMRKMLCQKESNYIRLKR
notes: human LATS1, residues 618-697; also called LATS1 (618-697); source: E. coli BL21(DE3), purified (Ni-NTA)
Take B1: the binding result in assay [1] was “binds”.

B2: recombinant full-length MOB1A(D63V) (natural protein, human, UniProt Q9H8S9 1-216, looked up)
chain: T1 sequence (looked up) with D63V, E104K, E105K
notes: human MOB1A, full length; also called MOB1(D63V); source: E. coli, purified as MOB1A (33-216) (Ni-NTA)
Regarding B2, the binding result in assay [2] was “binds”.
